Data reported in IntAct's records for PubMed 24165923.

Biological target: rspo1_human RSPO1 (UniProt Q2MKA7)
Sequence (Q2MKA7 whole entry): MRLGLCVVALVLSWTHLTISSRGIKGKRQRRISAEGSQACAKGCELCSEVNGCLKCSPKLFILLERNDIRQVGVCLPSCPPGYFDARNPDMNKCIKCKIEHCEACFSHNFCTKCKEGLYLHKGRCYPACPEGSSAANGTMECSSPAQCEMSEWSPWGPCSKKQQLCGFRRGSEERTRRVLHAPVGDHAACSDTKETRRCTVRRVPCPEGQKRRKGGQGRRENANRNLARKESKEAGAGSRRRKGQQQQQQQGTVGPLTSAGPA

## E3 ubiquitin-protein ligase ZNRF3 (Homo sapiens), Q9ULT6 P103A
  effect of a mutation on the interaction: disrupting interaction
